Changes are numbered by the printed parent chain. In names and notes the source's numbering stands.

These results are taken from US20210388087A1.

For assay [1], the target named is Human CD3eg linker (human). As to the kind of experiment: affinity relative to template H183/L072, single-mutation scan.
The target in assay [2] is Human CD3eg linker (human). As to the kind of experiment: SPR (Biacore T200), 37 degrees C, antibody captured by anti-human Fc on CM4 chip, recombinant human CD3 as analyte, 1:1 model. (In SPR one partner is held on a chip, and binding of the other changes the refractive index at the surface.)
Assay [3] addresses CD3 epsilon homodimer protein (UniProt P07766). As to the kind of experiment: SPR, antibody over immobilised CD3e homodimer.
The target in assay [4] is T1, Human CD3eg linker (human).
T1 chain: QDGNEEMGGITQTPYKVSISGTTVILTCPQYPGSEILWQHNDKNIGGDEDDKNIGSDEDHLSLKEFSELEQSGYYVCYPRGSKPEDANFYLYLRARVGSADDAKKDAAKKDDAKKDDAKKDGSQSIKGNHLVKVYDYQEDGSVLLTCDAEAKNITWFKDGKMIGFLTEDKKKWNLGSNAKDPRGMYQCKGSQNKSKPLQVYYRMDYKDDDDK
As to the kind of experiment: SPR Biacore T200, 25 C, Ab captured on anti-human Fc, antigen as analyte. Conditions: remark: other sources report otherwise.

Chain of CD3 epsilon homodimer protein (P07766 23-126): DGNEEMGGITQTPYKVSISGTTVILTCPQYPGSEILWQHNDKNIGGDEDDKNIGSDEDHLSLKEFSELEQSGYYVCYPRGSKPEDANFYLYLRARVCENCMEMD

B1: H183/L072 with Q90Y (Kabat) in VL dBBDu072L (antibody, name in Kabat numbering, V domains shown)
VH: QVQLVESGGGLVQPGRSLRLSCAASGFTFSNAWMHWVRQAPGKGLEWVAQIKDKGNAYAAYYAPSVKGRFTISRDDSKNSIYLQMNSLKTEDTAVYYCHYVHYASASTVLPAFGVDAWGQGTTVTVSS
VL: DIVMTQSPLSLPVTPGEPASISCQASQELVHMNRNTYLHWYQQKPGQAPRLLIYKVSNRFPGVPDRFSGSGSGTDFTLKISRVEAEDVGVYYCAYGTSVPFTFGQGTKLEIK
As to B1, the fold change of affinity for CD3 in assay [1] is 0 fold.

B2: H183/L072 with P95Y (Kabat) in VL dBBDu072L (antibody, name in Kabat numbering, V domains shown)
VH: B1 VH
VL: B1 VL with Y95Q, P100Y
B2: in assay [1], the fold change of affinity for CD3 is 0 fold.

B3: GPC3/Ctrl × CD3 trispecific antibody (antibody, part only; not given: control Fv, constant regions, Fc, V domains shown, not shown: another chain or arm of the molecule; a dimerising Fc or GST; large carriers; small tags and cut ends)
VH 1: QVQLVESGGGLVQPGRSLRLSCAASGFTFSNAWMHWVRQAPGKGLEWVAQIKDRANSYNTYYAESVKGRFTISRDDSKNSIYLQMNSLKTEDTAVYYCRYVHYTTYAGSSFSYGVDAWGQGTTVTVSS
VL 1: B1 VL with Q24R, A25S, E28P, M32S, P61S, A94G, Y95Q, S98Q, F101Y
VH 2: QVQLVQSGAEVKKPGASVTVSCKASGYTFTDYEMHWIRQPPGEGLEWIGAIDGPTPDTAYSEKFKGRVTLTADKSTSTAYMELSSLTSEDTAVYYCTRFYSYTYWGQGTLVTVSS
VL 2: B1 VL with Q24R, A25S, E28P, M32S, P61S, A94G, Y95Q, S98Q, F101Y
On to B3, for which, in assay [2], the Kd (in general, the concentration at which binding is half-saturated) worked out at 17.8 nM; the off-rate (koff) – broadly, the rate constant with which the complex falls apart – is 0.00151 s⁻¹; the on-rate constant (kon) (usually a measure of how fast the partners come together) turned out to be 85000 M⁻¹ s⁻¹.

B4: CE115HA000/GLS3000 H27dD (antibody, IgG1, name in Kabat numbering, V domains shown)
VH: QVQLVESGGGVVQPGRSLRLSCAASGFTFSNAWMHWVRQAPGKGLEWVAQIKAKSNNYATYYAESVKGRFTISRDDSKNSLYLQMNSLKTEDTAVYYCRYVHYGAYYGVDAWGQGTTVTVSS
VL: B1 VL with Q24R, A25S, E28S, H31D, M32S, P61S, A94G, Y95Q, S98Q, F101Y
B4: the KD ratio to GLS3000 in assay [3] was 13600.

B5: Ctrl/Ctrl × CD3 trispecific antibody (antibody, part only; not given: control Fvs, constant regions, Fc, V domains shown, not shown: another chain or arm of the molecule; a dimerising Fc or GST; large carriers)
VH: B3 VH 1
VL: B1 VL with Q24R, A25S, E28P, M32S, P61S, A94G, Y95Q, S98Q, F101Y
On to B5, for which, in assay [2], the Kd came to 17.5 nM, the koff came out at 0.00147 s⁻¹ and the kon is 83700 M⁻¹ s⁻¹.

B6: H1647L0581 (antibody, V domains shown)
VH: B1 VH with T28K, A32T, M34F, K54Y, G55Y, A57D, V109L, F113E
VL: B1 VL with A25P, L29V, Y95Q, V99H
Consider B6, for which, in assay [4], the dissociation constant (Kd) turned out to be 2280 nM, the koff amounted to 0.101 s⁻¹ and the kon was 44300 M⁻¹ s⁻¹.

B7: H183/L072 with T92Y (Kabat) in VL dBBDu072L (antibody, name in Kabat numbering, V domains shown)
VH: B1 VH
VL: B1 VL with Y95Q, T97Y
Take B7: in assay [1], the fold change of affinity for CD3 was 0 fold.

B8: CE115HA000/GLS3000 H34R (antibody, IgG1, name in Kabat numbering, V domains shown)
VH: B4 VH
VL: B1 VL with Q24R, A25S, E28S, M32S, H39R, P61S, A94G, Y95Q, S98Q, F101Y
Consider B8, for which the KD ratio to GLS3000 in assay [3] was found to be 85800.

B9: H183/L072 with G91Y (Kabat) in VL dBBDu072L (antibody, name in Kabat numbering, V domains shown)
VH: B1 VH
VL: B1 VL with Y95Q, G96Y
B9: in assay [1], the fold change of affinity for CD3 amounted to 0 fold.

B10: CE115HA000/GLS3000 N28D (antibody, IgG1, name in Kabat numbering, V domains shown)
VH: B4 VH
VL: B1 VL with Q24R, A25S, E28S, M32S, N33D, P61S, A94G, Y95Q, S98Q, F101Y
In the case of B10, the KD ratio to GLS3000 in assay [3] stood at 4460.

B11: CE115HA000/GLS3000 G91S (antibody, IgG1, name in Kabat numbering, V domains shown)
VH: B4 VH
VL: B1 VL with Q24R, A25S, E28S, M32S, P61S, A94G, Y95Q, G96S, S98Q, F101Y
With B11, the KD ratio to GLS3000 in assay [3] is 72100.
